To fix the notation:
B1: Yth1 (natural protein, S. cerevisiae, UniProt Q06102 1-208, looked up)
chain: MSLIHPDTAKYPFKFEPFLRQEYSFSLDPDRPICEFYNSREGPKSCPRGPLCPKKHVLPIFQNKIVCRHWLRGLCKKNDQCEYLHEYNLRKMPECVFFSKNGYCTQSPDCQYLHIDPASKIPKCENYEMGFCPLGSSCPRRHIKKVFCQRYMTGFCPLGKDECDMEHPQFIIPDEGSKLRIKRDDEINTRKMDEEKERRLNAIINGEV
B2: Pfs2 with SII tag, as subunit of the purified polymerase module (natural protein, S. cerevisiae, UniProt P42841 1-465, looked up)
chain: MDGHNQNQYQNQNQIQQSQQPPLKKYVTQRRSVDVSSPYINLYYNRRHGLPNLVVEPETSYTIDIMPPNAYRGRDRVINLPSKFTHLSSNKVKHVIPAIQWTPEGRRLVVATYSGEFSLWNASSFTFETLMQAHDSAVTTMKYSHDSDWMISGDADGMIKIWQPNFSMVKEIDAAHTESIRDMAFSSNDSKFVTCSDDNILKIWNFSNGKQERVLSGHHWDVKSCDWHPEMGLIASASKDNLVKLWDPRSGNCISSILKFKHTVLKTRFQPTKGNLLMAISKDKSCRVFDIRYSMKELMCVRDETDYMTLEWHPINESMFTLACYDGSLKHFDLLQNLNEPILTIPYAHDKCITSLSYNPVGHIFATAAKDRTIRFWTRARPIDPNAYDDPTYNNKKINGWFFGINNDINAVREKSEFGAAPPPPATLEPHALPNMNGFINKKPRQEIPGIDSNIKSSTLPGLSI
B3: Cft2(S), residues 1-720 (domain or fragment, S. cerevisiae, UniProt Q12102 1-720, looked up)
chain: MTYKYNCCDDGSGTTVGSVVRFDNVTLLIDPGWNPSKVSYEQCIKYWEKVIPEIDVIILSQPTIECLGAHSLLYYNFTSHFISRIQVYATLPVINLGRVSTIDSYASAGVIGPYDTNKLDLEDIEISFDHIVPLKYSQLVDLRSRYDGLTLLAYNAGVCPGGSIWCISTYSEKLVYAKRWNHTRDNILNAASILDATGKPLSTLMRPSAIITTLDRFGSSQPFKKRSKIFKDTLKKGLSSDGSVIIPVDMSGKFLDLFTQVHELLFESTKINAHTQVPVLILSYARGRTLTYAKSMLEWLSPSLLKTWENRNNTSPFEIGSRIKIIAPNELSKYPGSKICFVSEVGALINEVIIKVGNSEKTTLILTKPSFECASSLDKILEIVEQDERNWKTFPEDGKSFLCDNYISIDTIKEEPLSKEETEAFKVQLKEKKRDRNKKILLVKRESKKLANGNAIIDDTNGERAMRNQDILVENVNGVPPIDHIMGGDEDDDEEEENDNLLNLLKDNSEKSAAKKNTEVPVDIIIQPSAASKHKMFPFNPAKIKKDDYGTVVDFTMFLPDDSDNVNQNSRKRPLKDGAKTTSPVNEEDNKNEEEDGYNMSDPISKRSKHRASRYSGFSGTGEAENFDNLDYLKIDKTLSKRTISTVNVQLKCSVVILNLQSLVDQRSASIIWPSLKSRKIVLSAPKQIQNEEITAKLIKKNIEVVNMPLNKIVEFSTTI

The target in experiment [1] is B3. The experiment is described as follows: cross-linking.
Experiment [2] has as its target B3. Briefly: cryo-EM structure.
The target in experiment [3] is T1, Cft1 (S. cerevisiae, UniProt Q06632 1-1357).
T1 sequence (looked up): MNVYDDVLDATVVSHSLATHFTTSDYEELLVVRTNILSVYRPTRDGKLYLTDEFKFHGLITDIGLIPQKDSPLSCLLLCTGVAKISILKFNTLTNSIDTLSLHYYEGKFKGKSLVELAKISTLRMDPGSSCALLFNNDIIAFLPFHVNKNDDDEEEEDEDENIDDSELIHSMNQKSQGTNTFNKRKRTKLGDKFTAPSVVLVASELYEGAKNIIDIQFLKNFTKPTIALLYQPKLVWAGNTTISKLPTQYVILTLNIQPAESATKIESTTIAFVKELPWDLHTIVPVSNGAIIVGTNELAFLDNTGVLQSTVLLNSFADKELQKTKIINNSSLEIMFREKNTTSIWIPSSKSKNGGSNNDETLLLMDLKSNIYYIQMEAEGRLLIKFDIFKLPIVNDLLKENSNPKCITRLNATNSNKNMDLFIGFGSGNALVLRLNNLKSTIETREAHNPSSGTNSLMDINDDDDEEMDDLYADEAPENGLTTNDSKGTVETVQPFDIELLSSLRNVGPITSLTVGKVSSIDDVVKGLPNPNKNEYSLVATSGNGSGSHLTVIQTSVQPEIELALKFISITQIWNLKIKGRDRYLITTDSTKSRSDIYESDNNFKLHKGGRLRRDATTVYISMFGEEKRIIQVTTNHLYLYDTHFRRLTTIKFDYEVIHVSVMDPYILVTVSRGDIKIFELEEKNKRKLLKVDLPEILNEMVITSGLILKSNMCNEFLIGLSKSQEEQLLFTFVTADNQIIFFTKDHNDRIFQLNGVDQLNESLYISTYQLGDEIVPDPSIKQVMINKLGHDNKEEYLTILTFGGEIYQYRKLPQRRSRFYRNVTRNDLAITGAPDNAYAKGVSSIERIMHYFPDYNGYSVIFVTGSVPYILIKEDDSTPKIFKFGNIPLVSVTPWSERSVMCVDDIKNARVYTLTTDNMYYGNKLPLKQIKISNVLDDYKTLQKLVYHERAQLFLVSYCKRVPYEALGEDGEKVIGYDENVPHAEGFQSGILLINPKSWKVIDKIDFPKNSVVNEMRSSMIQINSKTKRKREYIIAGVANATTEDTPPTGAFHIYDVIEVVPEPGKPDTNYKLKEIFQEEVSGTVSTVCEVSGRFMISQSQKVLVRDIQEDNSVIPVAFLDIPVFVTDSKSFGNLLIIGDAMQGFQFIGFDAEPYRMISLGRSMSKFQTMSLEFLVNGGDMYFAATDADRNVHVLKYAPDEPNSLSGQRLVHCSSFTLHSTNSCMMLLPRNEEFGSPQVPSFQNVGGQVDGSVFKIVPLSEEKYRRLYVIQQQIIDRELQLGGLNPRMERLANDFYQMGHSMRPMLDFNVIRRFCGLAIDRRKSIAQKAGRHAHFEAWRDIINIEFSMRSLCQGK
Briefly: cryo-EM structure.

On to B1, for which the binding result in experiment [1] is “binds”.
For the molecule B2, the binding result in experiment [2] is given as “binds”.
Regarding B3, the binding result in experiment [3] is recorded as “binds”.

The values above are taken from doi:10.1101/2021.09.02.458805 (bioRxiv, 2021).
